Percentage of Positive Cells data for two substances are collected here from US20260241018A1.

The target of assay [1] is mouse 5T4 expressed on CHO-S cells (CHO-m5T4 cells) (mouse) (UniProt Q9Z0L0). Nature of the assay: flow cytometry, CHO-m5T4 cells.
For assay [2], the target named is monkey (Macaca fascicularis) 5T4 expressed on CHO-S cells (CHO-fas5T4 cells) (monkey (Macaca fascicularis)) (UniProt Q4R8Y9). Nature of the assay: flow cytometry, CHO-fas5T4 cells. Background: A flow cytometer gives signals particle by particle.
monkey (Macaca fascicularis) 5T4 expressed on CHO-S cells (CHO-fas5T4 cells) (monkey (Macaca fascicularis)), sequence (Q4R8Y9 35-355): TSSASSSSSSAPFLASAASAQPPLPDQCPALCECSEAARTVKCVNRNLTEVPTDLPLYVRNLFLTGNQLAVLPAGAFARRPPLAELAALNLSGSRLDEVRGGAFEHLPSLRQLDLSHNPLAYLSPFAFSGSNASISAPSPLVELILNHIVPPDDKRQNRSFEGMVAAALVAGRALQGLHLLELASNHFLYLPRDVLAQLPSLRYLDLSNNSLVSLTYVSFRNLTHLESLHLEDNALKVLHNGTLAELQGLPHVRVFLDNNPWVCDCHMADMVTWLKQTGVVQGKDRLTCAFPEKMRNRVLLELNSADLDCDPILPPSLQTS
Assay [3] concerns the target dog 5T4 expressed on CHO-S cells (CHO-d5T4 cells) (dog). Nature of the assay: flow cytometry, CHO-d5T4 cells.
Assay [4] addresses human 5T4 expressed on CHO-S cells (CHO-h5T4 cells) (human) (UniProt Q13641). Nature of the assay: flow cytometry, CHO-h5T4 cells.

mouse 5T4 expressed on CHO-S cells (CHO-m5T4 cells) (mouse), sequence (Q9Z0L0 32-361): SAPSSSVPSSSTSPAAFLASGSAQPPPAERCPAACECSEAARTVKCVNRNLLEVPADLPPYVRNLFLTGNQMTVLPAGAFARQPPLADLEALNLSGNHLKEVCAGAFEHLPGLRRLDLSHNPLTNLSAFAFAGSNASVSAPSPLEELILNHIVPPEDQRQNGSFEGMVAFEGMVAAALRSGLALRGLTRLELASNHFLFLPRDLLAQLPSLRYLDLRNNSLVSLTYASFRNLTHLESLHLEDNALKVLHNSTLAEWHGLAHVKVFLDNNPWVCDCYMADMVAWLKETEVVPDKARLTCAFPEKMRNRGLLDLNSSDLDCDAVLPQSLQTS
dog 5T4 expressed on CHO-S cells (CHO-d5T4 cells) (dog), sequence (chain, as listed by the source limits assumed): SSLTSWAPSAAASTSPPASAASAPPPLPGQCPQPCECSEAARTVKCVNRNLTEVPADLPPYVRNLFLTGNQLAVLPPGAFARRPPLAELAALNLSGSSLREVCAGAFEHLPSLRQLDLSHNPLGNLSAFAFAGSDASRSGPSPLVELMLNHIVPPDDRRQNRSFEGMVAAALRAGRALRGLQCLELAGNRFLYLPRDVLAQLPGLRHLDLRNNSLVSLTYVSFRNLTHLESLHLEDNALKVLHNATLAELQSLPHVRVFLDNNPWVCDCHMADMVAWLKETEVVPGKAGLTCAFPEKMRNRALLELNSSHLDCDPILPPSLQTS
human 5T4 expressed on CHO-S cells (CHO-h5T4 cells) (human), sequence (Q13641 32-355): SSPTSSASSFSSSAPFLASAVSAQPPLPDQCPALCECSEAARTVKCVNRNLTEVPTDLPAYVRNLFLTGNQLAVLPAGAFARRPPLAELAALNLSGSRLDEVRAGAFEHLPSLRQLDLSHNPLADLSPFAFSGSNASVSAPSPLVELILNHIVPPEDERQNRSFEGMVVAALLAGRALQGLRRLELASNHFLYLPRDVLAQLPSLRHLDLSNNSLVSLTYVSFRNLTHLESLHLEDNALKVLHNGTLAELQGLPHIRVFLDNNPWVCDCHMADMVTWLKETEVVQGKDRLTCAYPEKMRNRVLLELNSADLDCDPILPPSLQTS

With NC + secondary antibody, the Percentage of Positive Cells in assay [1] turned out to be 0.2%; in assay [2] it was 1.6%; in assay [3], 0.2%; in assay [4], 2%.
For the substance NC, the Percentage of Positive Cells in assay [1] is 0.7%; in assay [2], 1.3%; in assay [3], 1%; in assay [4], 1%.
